Data: publication doi:10.1101/2022.09.15.508077 (bioRxiv, 2022)
One block for each binder: values may come before it.

Assays:
UFC1 [1] = target: T1, UFC1 (UniProt Q9Y3C8 1-167); test: ITC
T1 sequence: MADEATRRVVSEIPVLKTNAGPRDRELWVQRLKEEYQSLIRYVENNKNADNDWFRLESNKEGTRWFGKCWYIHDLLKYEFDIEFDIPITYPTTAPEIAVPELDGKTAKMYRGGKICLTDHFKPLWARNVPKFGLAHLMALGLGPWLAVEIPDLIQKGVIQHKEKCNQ

[2] = target: T2, UFL1 27-200 (the UFL1 piece of the fusion DDRGK1-UFL1ΔN) (UniProt O94874 27-200); test: crystal structure
T2 sequence: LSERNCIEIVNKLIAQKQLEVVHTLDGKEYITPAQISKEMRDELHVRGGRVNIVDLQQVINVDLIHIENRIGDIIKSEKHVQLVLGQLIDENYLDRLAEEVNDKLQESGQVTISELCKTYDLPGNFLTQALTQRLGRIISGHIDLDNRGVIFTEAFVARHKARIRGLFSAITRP

UFC1 [3] = target: T1, UFC1; test: NMR titration

Kd (UFC1 [1]): 2400 nM
B1: DDRGK1_(207-314)-UFL1_(1-200) fusion protein (other)
chain: MTEEQSQSFLTEFINYIKQSKVVLLEDLASQVGLRTQDTINRIQDLLAEGTITGVIDDRGKFIYITPEELAAVANFIRQRGRVSIAELAQASNSLIAWGRESPAQAPAMADAWEEIRRLAADFQRAQFAEATQRLSERNCIEIVNKLIAQKQLEVVHTLDGKEYITPAQISKEMRDELHVRGGRVNIVDLQQVINVDLIHIENRIGDIIKSEKHVQLVLGQLIDENYLDRLAEEVNDKLQESGQVTISELCKTYDLPGNFLTQALTQRLGRIISGHIDLDNRGVIFTEAFVARHKARIRGLFSAITRP

binding result [2]: binds
B2: DDRGK1 207-305 (the DDRGK1 piece of the fusion DDRGK1-UFL1ΔN) (domain or fragment)
chain: MTEEQSQSFLTEFINYIKQSKVVLLEDLASQVGLRTQDTINRIQDLLAEGTITGVIDDRGKFIYITPEELAAVANFIRQRGRVSIAELAQASNSLIAWG

binding result (UFC1 [3]): binds
B3: UBA5 C-terminus (UBA5 347-404) (domain or fragment)
chain: SEVSEEELKNFSGPVPDLPEGITVAYTIPKKQEDSVTELTVEDSGESLEDLMAKMKNM
